The results in this text go back to patent US20190315859A1 (EUREKA THERAPEUTICS, published 2019).

First the molecules themselves.
T1: human CD19 expressed on the cell surface (native format) (human, UniProt P15391 20-488)
T1 construct: Endogenous on Raji, Jeko-1 and primary human B cells (CD20+CD3- gate); transduced into NIH/3T3 (3T3-CD19); also called hCD19; cell-surface human CD19
T1 sequence: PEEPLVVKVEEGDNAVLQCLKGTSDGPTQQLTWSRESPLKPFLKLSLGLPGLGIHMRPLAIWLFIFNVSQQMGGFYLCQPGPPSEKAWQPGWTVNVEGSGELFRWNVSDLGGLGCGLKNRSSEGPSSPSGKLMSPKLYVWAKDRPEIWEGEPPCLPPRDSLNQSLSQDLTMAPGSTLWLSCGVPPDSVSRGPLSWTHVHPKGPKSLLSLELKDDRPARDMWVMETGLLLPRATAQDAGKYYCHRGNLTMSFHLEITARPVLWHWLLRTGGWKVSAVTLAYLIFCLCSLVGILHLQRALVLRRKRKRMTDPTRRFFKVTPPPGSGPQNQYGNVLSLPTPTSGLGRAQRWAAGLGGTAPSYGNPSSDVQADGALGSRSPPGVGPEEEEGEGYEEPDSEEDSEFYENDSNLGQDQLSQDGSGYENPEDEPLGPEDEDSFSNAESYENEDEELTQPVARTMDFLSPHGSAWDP

T2: Recombinant human CD19 ECD-Fc fusion protein (human, UniProt P15391 20-291, biotinylated for the Octet assay (sites not given); not biotinylated when coated for ELISA)
T2 construct: domain: Fc of human IgG1 lacking the CH1 domain and including the hinge region; also called human CD19-Fc; hCD19 ECD-Fc; not shown: Fc of human IgG1 lacking the CH1 domain and including the hinge region
T2 sequence: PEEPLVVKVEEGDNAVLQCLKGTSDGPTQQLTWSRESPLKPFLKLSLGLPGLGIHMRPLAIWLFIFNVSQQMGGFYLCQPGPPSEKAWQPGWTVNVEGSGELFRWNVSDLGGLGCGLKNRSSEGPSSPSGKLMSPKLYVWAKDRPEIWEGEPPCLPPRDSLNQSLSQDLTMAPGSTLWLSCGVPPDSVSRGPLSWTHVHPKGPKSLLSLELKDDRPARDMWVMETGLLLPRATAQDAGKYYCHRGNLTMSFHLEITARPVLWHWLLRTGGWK

B1: 40 (scFv)
scFv (VL-linker-VH), shown on M13 phage: EIVMTQSPLSLSVTPGEPASISCRSSQSLLDSNGFNSLDWYLQKPGQSPQLLIHLGSDRASGVPDRFSGSGSGTDFTLKISRVEAEDVGIYYCMQSLQIPTFGQGTKVEIKRSRGGGGSGGGGSGGGGSLEMAQMQLVQSGAEVKKAGSSVKVSCETSGGTFSSSSVNWVRQAPGQGLEWMGGIIPIVGTPNYAQKFQDRVTITAVESTFTAYMELSGLRSEDTAVYYCARGGYRDYMDVWGRGTTVTVSS
notes: hit from protein screening (ELISA); also called clone 40; anti-human CD19 scFv phage clone 40
B2: 23 (scFv)
scFv (VL-linker-VH), shown on M13 phage: QSVLTQPPSVSAAPGQKVTISCSGSSSNIGNNYVSWYRQLPGTAPKLLIYENNKRPSGIPDRFSGSKSGTSATLGITGLQTGDEADYYCGTWDSSLRAGVFGTGTKVTVLGSRGGGGSGGGGSGGGGSLEMAQVQLVESGGGLVQPGGSLRLSCAASGFTFSSYAMSWVRQAPGKGLEWVSGISASGGSTYYADSVKGRFTISRDNSKNTLYLQMNSLRAEDTAVYYCARYYLSQIDSWGQGTLVTVSS
notes: hit from protein screening (ELISA); also called clone 23; anti-human CD19 scFv phage clone 23
B3: 36 (scFv)
scFv (VL-linker-VH), shown on M13 phage: DIQLTQSPSSLSAYVGDRVTITCRASQGITNSLAWYQQKPGKAPKLLLHAASRLESGVPSRFSGSGFGTDFTLTISSLQPEDFAVYYCQHYLGTPYSFGQGTKVEIKRSRGGGGSGGGGSGGGGSLEMAEVQLVESGGGLVQPGGSLRLSCAASGFTVSSNYMSWVRQAPGKGLEWVSAISGSGGSTYYADSVKGRFTISRDNSKNTLYLQMNSLRAEDTAVYYCARMNIDYWGQGTLVTVSS
notes: hit from protein screening (ELISA); also called clone 36; anti-human CD19 scFv phage clone 36
B4: 9 (scFv)
scFv (VL-linker-VH), shown on M13 phage: QTVVTQEPSVSAAPGQKVTISCSGSSSNIGNNYVSWYQQLPGTAPKLLIYDNNKRPSGIPDRFSGSKSGTSATLGITGLQTGDEADYYCGTWDSSLSAGVFGTGTKLTVLGSRGGGGSGGGGSGGGGSLEMAQVQLVETGGGLVQPGGSLRLSCAASGFTFSSYAMSWVRQAPGKGLEWVSAISGSGGSTYYADSVKGRFTISRDNSKNTLYLQMNSLRAEDTAVYYCARYYYSRLDYWGQGTLVTVSS
notes: hit from protein screening (ELISA); also called clone 9; anti-human CD19 scFv phage clone 9
B5: 54 (scFv)
scFv (VL-linker-VH), shown on M13 phage: SYVLTQPPSVSVSPGQTASITCSGDKLGDKYASWYQQKPGQSPVLVIYQDNKRPSGIPERFSGSNSGNTATLTISGTQAMDEADYYCQAWDSSTEDVFGPGTKVTVLGSRGGGGSGGGGSGGGGSLEMAEVQLVESGGGLIQPGGSLRLSCAASGFTVSSNYMSWVRQAPGKGLEWVSVIYSGGSTYYADSVKGRFTISRDNSKNTLYLQMNSLRAEDTAVYYCARGGISDDYYGSGSYDNWGQGTLVTVSS
notes: hit from protein screening (ELISA); also called clone 54; anti-human CD19 scFv phage clone 54
B6: 43 (scFv)
scFv (VL-linker-VH), shown on M13 phage: SYELTQPPSASGTPGQRVTISCSGSSSNIGSNYVYWYQQLPGTAPKLLIYRNNQRPSGVPDRFSGSKSGTSASLAISGLRSEDEADYYCAAWDDSLSGYVFGTGTKVTVLGSRGGGGSGGGGSGGGGSLEMAEVQLVESGGGLIQPGGSLRLSCAASGFTVSSNYMSWVRQAPGKGLEWVSVIYSGGSTYYADSVKGRFTISRDNSKNTLYLQMNSLRAEDTAVYYCARGGFGAEFDYWGQGTLVTVSS
notes: hit from protein screening (ELISA); also called clone 43; anti-human CD19 scFv phage clone 43

The target of the first experiment is T1, human CD19 expressed on the cell …. The experiment in a line: flow cytometry, phage clone then mouse anti-M13 antibody then R-PE anti-mouse IgG; CD19+ Raji and 3T3-CD19, CD19- Jurkat and 3T3; MFI. The method, then:
ELISA-positive phage clones were then tested for cell-surface human CD19 binding by flow cytometry using human CD19-positive Raji and 3T3-hCD19 cell lines, and human CD19 negative Jurkat and 3T3 cell lines (FIG. 1B). Cells were first stained with purified scFv phage clones, followed by mixing with a mouse anti-M13 monoclonal antibody, and finally a R-PE conjugated horse anti-mouse IgG (Vector Labs). Each step of staining was performed between 30-60 minutes on ice and cells were washed twice between stainings. One unique clone, 37, was identified to specifically bound human CD19⁺ Raji and 3T3-CD19 cells and not hCD19⁻ Jurkat and 3T3 (FIG. 1B).
In the case of B1, the binding result is “no binding”.

The next experiment has as its target T2, Recombinant human CD19 ECD-Fc fusion …. The experiment in a line: ELISA, plate coated with human CD19 ECD-Fc, phage clone detected with HRP-conjugated anti-M13 antibody, OD450. How it is done: Individual phage clones from enriched phage display panning pools were incubated in the coated plates. Binding of the phage clones was detected by HRP-conjugated anti-M13 antibodies and developed using HRP substrate. The absorbance was read at 450 nm.
For B2, the binding result is given as “binds”.
On to B3, for which the binding result is given as “binds”.
For the molecule B4, the binding result is “binds”.
Same read-out and setting: in the case of B5 it was “binds”; in that of B6, “binds”.
